How the values were obtained:
[1] = biological target: human cardiac troponin C C84Y (human, UniProt P63316 1-161, C84Y); experiment: NMR titration; 1H-15N HSQC spectra at 37 °C of WT or C84Y cTnC in the Ca2+-bound (primed) state, without peptide and with increasing concentrations of peptide (15, 40, 70, 120, 150 and 200 μM); normalized 1H chemical shifts against peptide concentration; details: both partners purified
[2] = biological target: human cardiac troponin C, wild type (human, UniProt P63316 1-161); experiment: as above; details: both partners purified

Kd [1]: 66 ± 5.5 µM
Kd [2]: 59 ± 3.6 µM
B1: inhibitory cardiac TnI peptide iTnI128-147 (peptide)
peptide: Ac-LTQKIFDLRGKFKRPTLRRV-NH2
notes: source: synthetic peptide (Genscript, purity higher than 95%)

From publication PMC8171346, “Anomalous structural dynamics of minimally frustrated residues in cardiac troponin C triggers hypertrophic cardiomyopathy†” (Chemical Science, 2021)
